Results taken from patent US7098309.

What was measured:
[1] = biological target: plasma-derived Dane particles (hepatitis B virus); assay: AUZYME sandwich ELISA on plasma-derived Dane particles
[2] = biological target: recombinant hepatitis B surface antigen (rHBsAg) processed without redox buffer, with formalin, formulated on alum (Bulk Alum Product) (hepatitis B virus) (UniProt P03141); assay: AUZYME sandwich ELISA on alum-formulated rHBsAg; row label names the rHBsAg preparation (group A, no redox buffer)
[3] = biological target: improved recombinant hepatitis B surface antigen (rHBsAg) refolded in GSH/GSSG redox buffer, with formalin, formulated on alum (Bulk Alum Product) (hepatitis B virus) (UniProt P03141); assay: AUZYME sandwich ELISA; row label names the rHBsAg batch (redox buffer, with formalin, glass tank)
[4] = biological target: recombinant hepatitis B surface antigen (rHBsAg) processed without redox buffer, with formalin, formulated on alum (Bulk Alum Product) (hepatitis B virus) (UniProt P03141); assay: AUZYME sandwich ELISA on alum-formulated rHBsAg; row label names the rHBsAg preparation (group B, no redox buffer)
[5] = biological target: improved recombinant hepatitis B surface antigen (rHBsAg) refolded in GSH/GSSG redox buffer, formalin omitted, formulated on alum (hepatitis B virus) (UniProt P03141); assay: AUZYME sandwich ELISA; row label names the rHBsAg batch (redox buffer, no formalin, stainless steel tank)
[6] = biological target: improved recombinant hepatitis B surface antigen (rHBsAg) refolded in GSH/GSSG redox buffer, with formalin, formulated on alum (Bulk Alum Product) (hepatitis B virus) (UniProt P03141); assay: AUZYME sandwich ELISA on alum-formulated rHBsAg; row label names the rHBsAg preparation (group C, with 1.0 mM GSH and 0.2 mM GSSG)
[7] = biological target: recombinant hepatitis B surface antigen (rHBsAg) processed without redox buffer, with formalin, formulated on alum (Bulk Alum Product) (hepatitis B virus) (UniProt P03141); assay: AUZYME sandwich ELISA; row label names the rHBsAg batch (no redox buffer, with formalin, glass tank)
[8] = biological target: improved recombinant hepatitis B surface antigen (rHBsAg) refolded in GSH/GSSG redox buffer, formalin omitted, formulated on alum (hepatitis B virus) (UniProt P03141); assay: AUZYME sandwich ELISA; row label names the rHBsAg batch (redox buffer, no formalin, glass tank)
[9] = biological target: improved recombinant hepatitis B surface antigen (rHBsAg) refolded in GSH/GSSG redox buffer, with formalin, formulated on alum (Bulk Alum Product) (hepatitis B virus) (UniProt P03141); assay: AUZYME sandwich ELISA on alum-formulated rHBsAg; row label names the rHBsAg preparation (group B, with 1.0 mM GSH and 0.2 mM GSSG)
[10] = biological target: improved recombinant hepatitis B surface antigen (rHBsAg) refolded in GSH/GSSG redox buffer, with formalin, formulated on alum (Bulk Alum Product) (hepatitis B virus) (UniProt P03141); assay: AUZYME sandwich ELISA on alum-formulated rHBsAg; row label names the rHBsAg preparation (group A, with 1.0 mM GSH and 0.2 mM GSSG)
[11] = biological target: recombinant hepatitis B surface antigen (rHBsAg) processed without redox buffer, with formalin, formulated on alum (Bulk Alum Product) (hepatitis B virus) (UniProt P03141); assay: AUZYME sandwich ELISA on alum-formulated rHBsAg; row label names the rHBsAg preparation (group C, no redox buffer)

AUZYME monoclonal enzyme immunoassay antibodies: mouse monoclonal antibodies to hepatitis B surface antigen coated on beads, and mouse monoclonal Anti-HBsAg peroxidase conjugate (antibody)
ELISA response (in vitro relative potency scale) (relative to reference rHBsAg = 1.0) [1]: 5 | IVRP (in vitro relative potency) (relative to reference rHBsAg = 1.0) [2]: 2.09 | IVRP (in vitro relative potency) (relative to reference rHBsAg = 1.0) [3]: 4.32 | IVRP (in vitro relative potency) (relative to reference rHBsAg = 1.0) [4]: 1.69 | IVRP (in vitro relative potency) (relative to reference rHBsAg = 1.0) [5]: 4.3 | IVRP (in vitro relative potency) (relative to reference rHBsAg = 1.0) [6]: 2.47 | IVRP (in vitro relative potency) (relative to reference rHBsAg = 1.0) [7]: 2.51 | IVRP (in vitro relative potency) (relative to reference rHBsAg = 1.0) [8]: 4.62 | IVRP (in vitro relative potency) (relative to reference rHBsAg = 1.0) [9]: 2.7 | IVRP (in vitro relative potency) (relative to reference rHBsAg = 1.0) [10]: 3.56 | IVRP (in vitro relative potency) (relative to reference rHBsAg = 1.0) [11]: 1.44
